Reference: the supplement of paper PMC10201428
± gives the standard deviation of the averaged measurements.

Assays:
[1] = system: VchCAST RNA-guided transposition machinery (E. coli BL21(DE3) host, lacZ target); experiment: relative integration efficiency (T-LR orientation) vs wild-type transposon end (log2 (normalized fold change)); transposon end mutated: left end; higher = more efficient transposition
Procedure, shortened: (§1)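 A T7-driven effector plasmid encoding a CRISPR array, tniQ-cas8-cas7-cas6 and tnsA-tnsB-tnsC was co-transformed into E. coli BL21(DE3) together with a pUC57 mini-transposon donor holding barcoded pools of 1549 left-end or 1849 right-end variants. Transformants were plated with 0.1 mM IPTG at 37°C for 18 h. Illumina sequencing of PCR-amplified input plasmids and genomic integration junctions gave barcode abundances, and relative integration efficiency is their output/input fold change, normalised to reference barcodes and log-transformed.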

[2] = system: VchCAST RNA-guided transposition machinery (E. coli BL21(DE3) host, lacZ target); experiment: relative integration efficiency (T-RL orientation) vs wild-type transposon end (log2 (normalized fold change)); transposon end mutated: left end; higher = more efficient transposition
Procedure, shortened: as §1

Sequence	relative integration efficiency (log2) [1]	relative integration efficiency (log2) [2]
AATGTTGTTGATGCAACCATAAAGTGATATTTAATAATTATTTATAATCAGCAACTTAACCACAACCATATATTGATATCTCCAAAAACAAAACAACCATAAGTTGATATTTTTGTGAATCGAGTATTTCAGCAAAACTACTGCAGTAAGAA	-2.36 ± 0.59	-3.07 ± 1
AATGTTGTTGATGCAACCATAAAGTGATATTTAATAATTATTTATAATCAGCAACTTAACCACACAACCATATATTGATATCTCAAAACAAAACAACCATAAGTTGATATTTTTGTGAATCGAGTATTTCAGCAAAACTACTGCAGTAAGAA	-3.44 ± 2.9	-2.19 ± 0.45
AATGTTGTTGATGCAACCATAAAGTGATATTTAATAATTATTTATAATCAGCAACTTAACCACACAACCATATATTGATATCTCACAAAACAACCATAAGTTGATATTTTTGTGAATCGAGTATTTCAGCAAAACTACTGCAGTAAGAAAGT	-2.81 ± 1.1	-4.27 ± 1.1
AATGTTGTTGATGCAACCATAAAGTGATATTTAATAATTATTTATAATCAGCAACTTAACCACACCCACCAACGCGCGGTCGCGAGACACCCCACCAACGCCTGGTCGCGGGGGTGTCCGATCTGATTTCAGCAAAACTACTGCAGTAAGAA	-3.59 ± 0.93	-6.25 ± 1.4
AATGTTGTTGATGCAACCATAAAGTGATATTTAATAATTATTTATAATCAGCAACTTACAACCATATATTGATATCTCACAAAACAACCATAAGTTGATATTTTACCACAAAATGTGAATCGAGTATTTCAGCAAAACTACTGCAGTAAGAA	-1.12 ± 1.1	-1 ± 0.61
AATGTTGTTGATGCAACCATAAAGTGATATTTAATAATTATTTATAATCAGCAACTTACAACCATATATTGATATCTCACAAAACAACCATAAGTTGATATTTTTGTGAATCGAGTATTTCAGCAAAACTACTGCAGTAAGAAAGTTACTTC	-0.998 ± 0.78	-0.809 ± 0.49
AATGTTGTTGATGCAACCATAAAGTGATATTTAATAATTATTTATAATCAGCAACTTACAACCATATATTGATATCTCACCACAAAAACAAAACAACCATAAGTTGATATTTTTGTGAATCGAGTATTTCAGCAAAACTACTGCAGTAAGAA	0.226 ± 1.1	-0.417 ± 0.35
AATGTTGTTGATGCAACCATAAAGTGATATTTAATAATTATTTATAATCAGCAACTTCAACCATATATTGATATCTCAACCACAAAAACAAAACAACCATAAGTTGATATTTTTGTGAATCGAGTATTTCAGCAAAACTACTGCAGTAAGAA	-2.92 ± 1.7	-2.25 ± 0.7
AATGTTGTTGATGCAACCATAAAGTGATATTTAATAATTATTTATAATCAGCAACTTCAACCATATATTGATATCTCACAAAACAACCATAAGTTGATATTTTAACCACAAAATGTGAATCGAGTATTTCAGCAAAACTACTGCAGTAAGAA	-1.03 ± 0.79	-0.834 ± 0.54
AATGTTGTTGATGCAACCATAAAGTGATATTTAATAATTATTTATAATCAGCAACTTCAACCATATATTGATATCTCACAAAACAACCATAAGTTGATATTTTTGTGAATCGAGTATTTCAGCAAAACTACTGCAGTAAGAAAGTTACTTCG	-0.903 ± 0.24	-1.06 ± 0.45
AATGTTGTTGATGCAACCATAAAGTGATATTTAATAATTATTTATAATCAGCACAACCATATATTGATATCTCACTTAACCACAAAAACAAAACAACCATAAGTTGATATTTTTGTGAATCGAGTATTTCAGCAAAACTACTGCAGTAAGAA	< -10	-6.85 ± 0.48
AATGTTGTTGATGCAACCATAAAGTGATATTTAATAATTATTTATAATCAGCACAGGCCAACACCCCACCAACGCGCGGTCGCGAGACACCCCACCAACGCCTGGTCGCGGGGGTGTCCGATCTGATTTCAGCAAAACTACTGCAGTAAGAA	-3.578 ± 0.033	-7.2 ± 1.5
AATGTTGTTGATGCAACCATAAAGTGATATTTAATAATTATTTATAATCAGCCAACCATATATTGATATCTCACAAAACAACCATAAGTTGATATTTTTGTGAATCGAGTATTTCAGCAAAACTACTGCAGTAAGAAAGTTACTTCGTGGTA	-4.33 ± 0.31	-7.71 ± 0.64
AATGTTGTTGATGCAACCATAAAGTGATATTTAATAATTATTTATAATCAGCCCAGGCCAACACCCCACCAACGCGCGGTCGCGAGACACCCCACCAACGCCTGGTCGCGGGGGTGTCCGATCTGATTTCAGCAAAACTACTGCAGTAAGAA	-4.09 ± 1.1	-6.41 ± 1.4
AATGTTGTTGATGCAACCATAAAGTGATATTTAATAATTATTTATAATCCTACCAGGCCAACACCCCACCAACGCGCGGTCGCGAGACACCCCACCAACGCCTGGTCGCGGGGGTGTCCGATCTGATTTCAGCAAAACTACTGCAGTAAGAA	-5.08 ± 3.7	-6.45 ± 1.8
AATGTTGTTGATGCAACCATAAAGTGATATTTAATAATTATTTATACAACCATAAAGTGATATTTAACAACCATATATTGATATCTCACAAAACAACCATAAGTTGATATTTTTGTGAATCGAGTATTTCAGCAAAACTACTGCAGTAAGAA	-4.48 ± 0.05	-6.31 ± 0.44
AATGTTGTTGATGCAACCATAAAGTGATATTTAATAATTATTTATACAACCATATATTGATATCTCATCAGCAACTTAACCACAAAAACAAAACAACCATAAGTTGATATTTTTGTGAATCGAGTATTTCAGCAAAACTACTGCAGTAAGAA	-1.08 ± 0.46	-4.35 ± 0.47
AATGTTGTTGATGCAACCATAAAGTGATATTTAATAATTATTTATACGACTACCAGGCCAACACCCCACCAACGCGCGGTCGCGAGACACCCCACCAACGCCTGGTCGCGGGGGTGTCCGATCTGATTTCAGCAAAACTACTGCAGTAAGAA	-4.47 ± 0.46	-6.45 ± 1.3
AATGTTGTTGATGCAACCATAAAGTGATATTTAATAATTATTTATCAACCATAAAGTGATATTTAACCAACCATATATTGATATCTCACAAAACAACCATAAGTTGATATTTTTGTGAATCGAGTATTTCAGCAAAACTACTGCAGTAAGAA	-2.57 ± 2	-6.32 ± 2.1
AATGTTGTTGATGCAACCATAAAGTGATATTTAATAATTATTTATCAACCATATATTGATATCTCAATCAGCAACTTAACCACAAAAACAAAACAACCATAAGTTGATATTTTTGTGAATCGAGTATTTCAGCAAAACTACTGCAGTAAGAA	-2.91 ± 2.7	-4.61 ± 1.4
AATGTTGTTGATGCAACCATAAAGTGATATTTAATAATTATTTATCAACCATATATTGATATCTCACAAAACAACCATAAGTTGATATTTTTGTGAATCGAGTATTTCAGCAAAACTACTGCAGTAAGAAAGTTACTTCGTGGTATGGGAGG	-3.55 ± 2.2	-6.15 ± 0.83
AATGTTGTTGATGCAACCATAAAGTGATATTTAATAATTATTTCAACCATATATTGATATCTCACAAAACAACCATAAGTTGATATTTTTGTGAATCGAGTATTTCAGCAAAACTACTGCAGTAAGAAAGTTACTTCGTGGTATGGGAGGAT	-3.12 ± 1.5	-6.94 ± 1.9
AATGTTGTTGATGCAACCATAAAGTGATATTTAATAATTATTTCGAACTAGTTAACTAGTACGCAAACAACCATATATTGATATCTCACAAAACAACCATAAGTTGATATTTTTGTGAATCGAGTATTTCAGCAAAACTACTGCAGTAAGAA	< -10	-4.69 ± 1.4
AATGTTGTTGATGCAACCATAAAGTGATATTTAATAATTATTTCGCCGACTACCAGGCCAACACCCCACCAACGCGCGGTCGCGAGACACCCCACCAACGCCTGGTCGCGGGGGTGTCCGATCTGATTTCAGCAAAACTACTGCAGTAAGAA	-6.08 ± 3.8	-7.27 ± 1.6
